Measured values from publication PMC12363406, “Human IgE monoclonal antibodies define two unusual epitopes trapping dog allergen Can f 1 in different conformations” (Protein Science : A Publication of the Protein Society, 2025).

B1: human IgE monoclonal antibody 1J11 (antibody, V domains shown)
VH: QVQLVESGGGVVQPGSSLRLSCAVSGFTVRSYGMHWVRQAPGKGLEWVALILFDGTTKHYADSVKGRFTISRDNSKDTLYLQMTSLGAEDTAMYYCVRDFNQFVKRFVDGPAFDLWGQGTRVTVSS
VL: SYELTQPPSVSVSPGQTANITCSGDKLGDKFTSWYQQRPGQSPVLVIYQDIERPSGIPERFSGSNSGNTATLTISGTQALDEADYYCQAWDTSTVVFGGGTRLTVL
notes: variable region as the heavy chain of m4 (PDB 8VQF); as the light chain of m4 (PDB 8VQF); Human IgE; details of isolation, production and purification are in Supplementary material; also called hIgE mAb 1J11; IgE mAb 1J11; source: B cell hybridomas from allergic subjects; copies: 2 + 2
B2: human IgE monoclonal antibody 12F3 (antibody, V domains shown)
VH: QVQLVQSGAEVQKPGSSVKVSCKASGGTFSRYPLIWVRQTPGQGLEWMGGIFPVIGRTNYAEKFQGRVTITADESTSTAYMELNSLTSEDTAVYYCARLDTYEILGYGTDVWGQGTTVTVSS
VL: EIVLTQSPATLSLSPGERATLSCRASESVSSSVAWYQQKFGQAPRLLIYDASNRATGIPARFSGSGSGTDFTLTISSLEPEDFAVYYCQLRSNWPPLTFGGGTKVQIK
notes: variable region as the heavy chain of m5 (PDB 9NPI); as the light chain of m5 (PDB 9NPI); Human IgE; details of isolation, production and purification are in Supplementary material; also called hIgE mAb 12F3; IgE mAb 12F3; source: B cell hybridomas from allergic subjects; copies: 2 + 2

Biological target: T1, natural Can f 1 (Canis lupus familiaris (dog))
T1 construct: Can f 1, major dog allergen, lipocalin, Canis familiaris; isolated from the natural source; model in the complex with 1J11 Fab starts at Ala5; numbers count on: the mature protein; Natural preparation; also called nCan f 1
Experiment: SPR; localized surface plasmon resonance (LSPR) on an OpenSPR (Nicoya Lifesciences)
Conditions: both partners purified

T1 sequence (chain, as listed by the source): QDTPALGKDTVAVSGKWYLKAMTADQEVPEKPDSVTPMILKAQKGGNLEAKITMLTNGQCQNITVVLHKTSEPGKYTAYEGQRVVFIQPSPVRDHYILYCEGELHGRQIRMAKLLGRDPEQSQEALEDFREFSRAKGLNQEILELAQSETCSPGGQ

Binder | Kd [nM]
B1 | 0.2 ± 0.1
B2 | 3.6 ± 1.3
